{"source": "paper PMC9104804", "about": "“Fine-Tuning Modulation of Oxidation-Mediated Posttranslational Control of Bradyrhizobium diazoefficiens FixK2 Transcription Factor”", "key": {"[1]": {"molecular_target": "C183S FixK2 protein variant of Bradyrhizobium diazoefficiens (Bradyrhizobium diazoefficiens) (UniProt Q89RK6)", "assay": "SEC; analytical SEC, Superdex 200 10/300 GL, room temperature, 40 mM Tris-HCl pH 7.0, 150 mM KCl, 0.1 mM EDTA; 100 µL samples loaded at 2.5-30 µM (native) or 2.5-40 µM (C183S, C183D); concentrations refer to the dimeric form; monomer-dimer equilibrium"}, "[2]": {"molecular_target": "FixK2 protein (native, wild type) of Bradyrhizobium diazoefficiens (Bradyrhizobium diazoefficiens) (UniProt Q89RK6)", "assay": "SEC; analytical SEC, Superdex 200 10/300 GL, room temperature, 40 mM Tris-HCl pH 7.0, 150 mM KCl, 0.1 mM EDTA; 100 µL samples loaded at 2.5-30 µM (native) or 2.5-40 µM (C183S, C183D); concentrations refer to the dimeric form; monomer-dimer equilibrium"}, "[3]": {"molecular_target": "T1, C183D FixK2 C183D (Bradyrhizobium diazoefficiens 110spc4) (UniProt O69245)", "T1 sequence": "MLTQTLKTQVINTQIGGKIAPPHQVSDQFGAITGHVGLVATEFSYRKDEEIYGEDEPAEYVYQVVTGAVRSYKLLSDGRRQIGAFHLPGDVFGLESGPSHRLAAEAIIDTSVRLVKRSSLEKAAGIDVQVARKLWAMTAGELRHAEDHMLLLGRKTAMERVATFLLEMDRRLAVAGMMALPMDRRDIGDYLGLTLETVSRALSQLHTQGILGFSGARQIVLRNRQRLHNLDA", "assay": "EMSA", "details": "EMSA: 40 mM Tris-HCl pH 8, 10 mM MgCl2, 0.1 mM EDTA, 0.1 mM DTT, 150 mM KCl, 0.4 mM K3PO4, room temperature, 30 min; SPR: 40 mM Tris-HCl pH 7.0, 150 mM KCl …; scale: fold higher protein concentration than C183S for similar shift"}, "[4]": {"molecular_target": "C183D FixK2 protein variant of Bradyrhizobium diazoefficiens (Bradyrhizobium diazoefficiens) (UniProt Q89RK6)", "assay": "SEC; analytical SEC, Superdex 200 10/300 GL, room temperature, 40 mM Tris-HCl pH 7.0, 150 mM KCl, 0.1 mM EDTA; 100 µL samples loaded at 2.5-30 µM (native) or 2.5-40 µM (C183S, C183D); concentrations refer to the dimeric form; monomer-dimer equilibrium"}, "[5]": {"molecular_target": "T2, C183S FixK2 C183S (Bradyrhizobium diazoefficiens 110spc4) (UniProt O69245)", "T2 sequence": "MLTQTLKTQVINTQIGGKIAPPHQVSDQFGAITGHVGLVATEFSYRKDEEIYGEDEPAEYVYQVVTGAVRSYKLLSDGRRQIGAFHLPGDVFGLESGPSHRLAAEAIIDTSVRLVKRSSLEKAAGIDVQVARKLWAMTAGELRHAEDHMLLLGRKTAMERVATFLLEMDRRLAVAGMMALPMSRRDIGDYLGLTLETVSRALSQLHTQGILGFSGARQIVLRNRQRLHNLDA", "assay": "EMSA", "details": "EMSA: 40 mM Tris-HCl pH 8, 10 mM MgCl2, 0.1 mM EDTA, 0.1 mM DTT, 150 mM KCl, 0.4 mM K3PO4, room temperature, 30 min; SPR: 40 mM Tris-HCl pH 7.0, 150 mM KCl …"}, "[6]": {"molecular_target": "T3, C183S FixK2 (Bradyrhizobium diazoefficiens 110spc4, UniProt O69245 1-232, C183S)", "T3 sequence": "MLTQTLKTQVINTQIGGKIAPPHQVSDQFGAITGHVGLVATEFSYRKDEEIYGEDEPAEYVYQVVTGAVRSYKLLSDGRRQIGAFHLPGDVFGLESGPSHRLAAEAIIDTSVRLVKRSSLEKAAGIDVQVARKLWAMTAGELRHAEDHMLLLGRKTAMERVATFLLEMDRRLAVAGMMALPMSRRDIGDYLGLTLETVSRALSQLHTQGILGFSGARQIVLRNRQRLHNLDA", "assay": "SPR; sensorgram at 250 nM; nanomolar affinity only cited from earlier study; EMSA: 40 mM Tris-HCl pH 8, 10 mM MgCl2, 0.1 mM EDTA, 0.1 mM DTT, 150 mM KCl, 0.4 mM K3PO4, room temperature, 30 min; SPR: 40 mM Tris-HCl pH 7.0, 150 mM KCl, 0.1 mM EDTA, 0.005% Tween 20, 25 °C", "details": "protein: recombinant; tags: untagged after cleavage of C-terminal Mxe GyrA intein-CBD (IMPACT, pTXB1); chain copies: 2; label: biotin; blunt"}}}
{"molecule": "C183S FixK2 protein variant of Bradyrhizobium diazoefficiens (from UniProt Q89RK6 4-235) (natural protein)", "values": [{"measurement": "stoichiometry N", "setting": "[1]", "result": 2}]}
{"molecule": "FixK2 protein (native, wild type) of Bradyrhizobium diazoefficiens (from UniProt Q89RK6 4-235) (natural protein)", "values": [{"measurement": "stoichiometry N", "setting": "[2]", "result": 2}]}
{"molecule": "fixNOQP promoter 90-bp PCR fragment", "values": [{"measurement": "binding signal", "setting": "[3]", "result": 32}]}
{"molecule": "C183D FixK2 protein variant of Bradyrhizobium diazoefficiens (from UniProt Q89RK6 4-235) (natural protein)", "values": [{"measurement": "stoichiometry N", "setting": "[4]", "result": 2}]}
{"molecule": "AAGAACACAGCGCCAGAAACCACATTCACCCTCGCGGGGAATTGATTGAAATCAAGATAGGTGGATTTCTGTTAATGTGAGGCTTTCGCG (double strand) [fixNOQP promoter 90-bp PCR fragment]", "values": [{"measurement": "binding signal", "setting": "[3]", "result": 32}, {"measurement": "binding", "setting": "[5]", "result": "binds"}]}
{"molecule": "fixN_3 FixK2 box duplex (SPR) (dsDNA, 5'-biotin on reverse strand (S47)) DNA 1: CCACCTATCTTGATTTCAATCAATTCCCCG DNA 2: CGGGGAATTGATTGAAATCAAGATAGGTGG", "values": [{"measurement": "binding result", "setting": "[6]", "result": "binds"}]}
